Reference: patent US20220213181A1 (Novartis, published 2022)

B1: NEG276 (antibody, human IgG1, kappa)
heavy: not shown
light: EIVMTQSPATLSVSPGERATLSCKASQDIGSNLNWLQQKPGQAPRRLIYAVSNRGPGIPARFSGSRSGSEYTLTISSLQSEDFAVYYCLQYASSPWTFGQGTKVEIKRTVAAPSVFIFPPSDEQLKSGTASVVCLLNNFYPREAKVQWKVDNALQSGNSQESVTEQDSKDSTYSLSSTLTLSKADYEKHKVYACEVTHQGLSSPVTKSFNRGEC
notes: humanized, hIgG1/kappa, parental antibody 19C16
B2: NEG276-LALA (antibody, human IgG1, kappa, L234A L235A)
heavy: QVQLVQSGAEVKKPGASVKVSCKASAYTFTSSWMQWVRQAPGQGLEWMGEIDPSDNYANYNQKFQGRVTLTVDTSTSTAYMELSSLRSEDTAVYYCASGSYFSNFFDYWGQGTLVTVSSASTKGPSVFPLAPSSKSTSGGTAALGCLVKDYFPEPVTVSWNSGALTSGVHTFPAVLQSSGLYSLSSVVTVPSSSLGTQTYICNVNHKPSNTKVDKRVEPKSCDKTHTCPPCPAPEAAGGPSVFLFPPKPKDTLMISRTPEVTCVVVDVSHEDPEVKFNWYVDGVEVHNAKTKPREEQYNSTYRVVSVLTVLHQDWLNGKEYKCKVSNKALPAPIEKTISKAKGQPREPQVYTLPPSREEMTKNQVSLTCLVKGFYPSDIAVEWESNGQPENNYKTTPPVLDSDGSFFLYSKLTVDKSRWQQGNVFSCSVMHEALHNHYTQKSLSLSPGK
light: B1 light
B3: NEG318 (antibody, human IgG1, kappa, V domains shown)
VH: QVQLVQSGAEVKKPGASVKVSCKASGYTFTSFWITWVRQAPGQGLEWMGDIYPGGATTNYNEKLQGRVTLTVDTSTSTAYMELRSLRSDDTAVYYCARSPPQVGPFDYWGQGTLVTVSS
VL: DIQMTQSPSSLSASVGDRVTITCQASDYIYHWLAWYQQKPGKAPKLLISGASSLETGVPSRFSGSGSGKDYTFTISSLQPEDIATYYCQQYWSIPWTFGQGTKLEIKR
notes: humanized, hIgG1/kappa, parental antibody 14P18

How the values were obtained:
[1] = target: T1, P2 (human); assay: linear peptide array on glass (JPT)
T1 construct: linear 15-mer from the N-terminal coiled coil domain of human ANGPTL4
T1 peptide: QSKSPRFASWDEMNV
Protocol: (§1) The ability of selected antibodies of invention, namely NEG276 and NEG318, to bind to linear 15-amino-acid peptides derived from the N-terminal coiled coil domain of human ANGPTL4 was tested. The peptides were immobilized on a glass surface, and the ability of NEG276 and NEG318 to bind to the immobilized peptides was evaluated using experimental methods optimized for linear peptide epitope mapping at JPT Peptide Technologies (Berlin, Germany).

[2] = target: T2, P4 (human); assay: linear peptide array on glass (JPT)
T2 construct: linear 15-mer from the N-terminal coiled coil domain of human ANGPTL4
T2 peptide: FASWDEMNVLAHGLL
Protocol: as §1

[3] = target: T3, P6 (human); assay: linear peptide array on glass (JPT)
T3 construct: linear 15-mer from the N-terminal coiled coil domain of human ANGPTL4
T3 peptide: MNVLAHGLLQLGQGL
Protocol: as §1

[4] = target: T4, P8 (human); assay: linear peptide array on glass (JPT)
T4 construct: linear 15-mer from the N-terminal coiled coil domain of human ANGPTL4
T4 peptide: GLLQLGQGLREHAER
Protocol: as §1

[5] = target: T5, P9 (human); assay: linear peptide array on glass (JPT)
T5 construct: linear 15-mer from the N-terminal coiled coil domain of human ANGPTL4
T5 peptide: QLGQGLREHAERTRS
Protocol: as §1

[6] = target: T6, P10 (human); assay: linear peptide array on glass (JPT)
T6 construct: linear 15-mer from the N-terminal coiled coil domain of human ANGPTL4
T6 peptide: QGLREHAERTRSQLS
Protocol: as §1

[7] = target: T7, P11 (human); assay: linear peptide array on glass (JPT)
T7 construct: linear 15-mer from the N-terminal coiled coil domain of human ANGPTL4
T7 peptide: REHAERTRSQLSALE
Protocol: as §1

[8] = target: T8, P12 (human); assay: linear peptide array on glass (JPT)
T8 construct: linear 15-mer from the N-terminal coiled coil domain of human ANGPTL4
T8 peptide: AERTRSQLSALERRL
Protocol: as §1

[9] = target: T9, P13 (human); assay: linear peptide array on glass (JPT)
T9 construct: linear 15-mer from the N-terminal coiled coil domain of human ANGPTL4; printed with Ser where ANGPTL4 has Cys
T9 peptide: TRSQLSALERRLSAS
Protocol: as §1

[10] = target: T10, P14 (human); assay: linear peptide array on glass (JPT)
T10 construct: linear 15-mer from the N-terminal coiled coil domain of human ANGPTL4; printed with Ser where ANGPTL4 has Cys
T10 peptide: QLSALERRLSASGSA
Protocol: as §1

[11] = target: T11, P15 (human); assay: linear peptide array on glass (JPT)
T11 construct: linear 15-mer from the N-terminal coiled coil domain of human ANGPTL4; printed with Ser where ANGPTL4 has Cys
T11 peptide: ALERRLSASGSASQG
Protocol: as §1

[12] = target: T12, P17 (human); assay: linear peptide array on glass (JPT)
T12 construct: linear 15-mer from the N-terminal coiled coil domain of human ANGPTL4; printed with Ser where ANGPTL4 has Cys
T12 peptide: SASGSASQGTEGSTD
Protocol: as §1

[13] = target: T13, P18 (human); assay: linear peptide array on glass (JPT)
T13 construct: linear 15-mer from the N-terminal coiled coil domain of human ANGPTL4; printed with Ser where ANGPTL4 has Cys
T13 peptide: GSASQGTEGSTDLPL
Protocol: as §1

[14] = target: T14, P19 (human); assay: linear peptide array on glass (JPT)
T14 construct: linear 15-mer from the N-terminal coiled coil domain of human ANGPTL4; printed with Ser where ANGPTL4 has Cys
T14 peptide: SQGTEGSTDLPLAPE
Protocol: as §1

[15] = target: T15, P20 (human); assay: linear peptide array on glass (JPT)
T15 construct: linear 15-mer from the N-terminal coiled coil domain of human ANGPTL4
T15 peptide: TEGSTDLPLAPESRV
Protocol: as §1

[16] = target: T16, P23 (human); assay: linear peptide array on glass (JPT)
T16 construct: linear 15-mer from the N-terminal coiled coil domain of human ANGPTL4
T16 peptide: APESRVDPEVLHSLQ
Protocol: as §1

[17] = target: T17, P29 (human); assay: linear peptide array on glass (JPT)
T17 construct: linear 15-mer from the N-terminal coiled coil domain of human ANGPTL4
T17 peptide: KAQNSRIQQLFHKVA
Protocol: as §1

[18] = target: T18, P31 (human); assay: linear peptide array on glass (JPT)
T18 construct: linear 15-mer from the N-terminal coiled coil domain of human ANGPTL4
T18 peptide: IQQLFHKVAQQQRHL
Protocol: as §1

[19] = target: T19, P32 (human); assay: linear peptide array on glass (JPT)
T19 construct: linear 15-mer from the N-terminal coiled coil domain of human ANGPTL4
T19 peptide: LFHKVAQQQRHLEKQ
Protocol: as §1

[20] = target: T20, P33 (human); assay: linear peptide array on glass (JPT)
T20 construct: linear 15-mer from the N-terminal coiled coil domain of human ANGPTL4
T20 peptide: KVAQQQRHLEKQHLR
Protocol: as §1

[21] = target: T21, P34 (human); assay: linear peptide array on glass (JPT)
T21 construct: linear 15-mer from the N-terminal coiled coil domain of human ANGPTL4
T21 peptide: QQQRHLEKQHLRIQH
Protocol: as §1

[22] = target: T22, P35 (human); assay: linear peptide array on glass (JPT)
T22 construct: linear 15-mer from the N-terminal coiled coil domain of human ANGPTL4
T22 peptide: RHLEKQHLRIQHLQS
Protocol: as §1

[23] = target: T23, P36 (human); assay: linear peptide array on glass (JPT)
T23 construct: linear 15-mer from the N-terminal coiled coil domain of human ANGPTL4
T23 peptide: EKQHLRIQHLQSQFG
Protocol: as §1

[24] = target: T24, P37 (human); assay: linear peptide array on glass (JPT)
T24 construct: linear 15-mer from the N-terminal coiled coil domain of human ANGPTL4
T24 peptide: HLRIQHLQSQFGLLD
Protocol: as §1

[25] = target: T25, P38 (human); assay: linear peptide array on glass (JPT)
T25 construct: linear 15-mer from the N-terminal coiled coil domain of human ANGPTL4
T25 peptide: IQHLQSQFGLLDHKH
Protocol: as §1

[26] = target: T26, P39 (human); assay: linear peptide array on glass (JPT)
T26 construct: linear 15-mer from the N-terminal coiled coil domain of human ANGPTL4
T26 peptide: LQSQFGLLDHKHLDH
Protocol: as §1

[27] = target: T27, P40 (human); assay: linear peptide array on glass (JPT)
T27 construct: linear 15-mer from the N-terminal coiled coil domain of human ANGPTL4
T27 peptide: QFGLLDHKHLDHEVA
Protocol: as §1

[28] = target: T28, P43 (human); assay: linear peptide array on glass (JPT)
T28 construct: linear 15-mer from the N-terminal coiled coil domain of human ANGPTL4
T28 peptide: KHLDHEVAKPARRKR
Protocol: as §1

[29] = target: T29, Mouse ANGPTL4(26-410)-FLAG-His6-Avi (mouse, UniProt Q9Z1P8 24-410, biotin on the C-terminal Avi tag (BirA) where the protein is immobilised); assay: Octet (ForteBio) kinetics, biotinylated antigen on streptavidin sensor, IgG in solution
T29 sequence: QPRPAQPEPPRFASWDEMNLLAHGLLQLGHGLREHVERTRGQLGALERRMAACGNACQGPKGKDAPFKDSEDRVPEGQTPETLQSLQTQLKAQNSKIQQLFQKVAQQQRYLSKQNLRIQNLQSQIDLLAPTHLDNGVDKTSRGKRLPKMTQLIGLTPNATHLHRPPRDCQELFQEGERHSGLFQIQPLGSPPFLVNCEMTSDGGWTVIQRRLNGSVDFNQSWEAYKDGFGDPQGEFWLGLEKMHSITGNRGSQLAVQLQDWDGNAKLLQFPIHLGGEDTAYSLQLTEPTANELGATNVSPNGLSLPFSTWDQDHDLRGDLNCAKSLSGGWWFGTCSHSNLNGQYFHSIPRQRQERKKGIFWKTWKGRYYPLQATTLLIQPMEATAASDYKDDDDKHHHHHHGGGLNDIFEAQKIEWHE

[30] = target: T29, Mouse ANGPTL4(26-410)-FLAG-His6-Avi; assay: Octet (ForteBio) kinetics; average KD of the runs; Octet kinetics; average KD of the two mouse runs

Binder	binding result [1]	binding result [2]	binding result [3]	binding result [4]	binding result [5]	binding result [6]	binding result [7]	binding result [8]	binding result [9]	binding result [10]	binding result [11]	binding result [12]	binding result [13]	binding result [14]	binding result [15]	binding result [16]	binding result [17]	binding result [18]	binding result [19]	binding result [20]	other results
B1	no binding	no binding	no binding	no binding	no binding	no binding	no binding	no binding	no binding	no binding	no binding	no binding	no binding	no binding	no binding	no binding	no binding	no binding	no binding	no binding	binding result [21]: no binding; binding result [22]: no binding; binding result [23]: no binding; binding result [24]: no binding; binding result [25]: no binding; binding result [26]: no binding; binding result [27]: no binding; binding result [28]: no binding
B2	–	–	–	–	–	–	–	–	–	–	–	–	–	–	–	–	–	–	–	–	Kd [29]: 4.15 nM; Kd [30]: 6.2 nM
B3	no binding	no binding	no binding	no binding	no binding	no binding	no binding	no binding	no binding	no binding	no binding	no binding	no binding	no binding	no binding	no binding	no binding	no binding	no binding	no binding	binding result [21]: no binding; binding result [22]: no binding; binding result [23]: no binding; binding result [24]: no binding; binding result [25]: no binding; binding result [26]: no binding; binding result [27]: no binding; binding result [28]: no binding
